Data as given in patent publication US10808024B2, “Antibodies against immunocomplexes comprising cyanobacterial cyclic peptide hepatotoxins” (priority 2015, dated 2020).
Entries after “also recorded” stand apart in the source; their conditions may differ.

Assays:
[1] = system: immunocomplexes of MC-XZ and Nod-R with anti-Adda mAb; assay: Cross-reactivity profile of anti-IC binders by single-step non-competitive assay (FIG. 5); format: binding; settings: toxin 0.1 to 60 μg/L
[2] = system: immunocomplexes of CCPH variants and anti-Adda mAb; assay: Screening and cross-reactivity studies of anti-IC scFv-AP binders, specificity class; format: binding

B1: SA55D1: MC-LZ subgroup-specific anti-IC binder (antibody, V domains shown)
VH: EVQLLESGGGLVQPGGSLRLSCAASGFTFSSDVMHWVRQAPGKGLEWVSVISPYDGYTRYADSVKGRFTISRDNSKNTLYLQMNSLRAEDTAVYYCARHKGGYRRAYMDYWGQGTLVTVSS
VL: EIVLTQSPGTLSLSPGERATLSCRASQSVSSSALAWYQQKPGQAPRLLIYGASSRATGVPDRFSGSGSGTDFTLTISRLEPEDFAVYYCQQSYSYPWTFGQGTKVEIKRT
modifications: Clone SA55D1; DOMAIN (31)..(35) CDR1; DOMAIN (50)..(66) CDR2; DOMAIN (99)..(110) CDR3; DOMAIN (24)..(35) CDR1; DOMAIN (51)..(57) CDR2; DOMAIN (90)..(98) CDR3
[1]
  Specificity (cross-reactive pattern): specific towards MC-XZ, where X=L (Leu)
[2]
  Specificity of anti-IC antibody (CCPH immunocomplexes recognized): MC-LZ subgroup-specific

B2: SA58A12: XR subgroup-specific anti-IC antibody (antibody, V domains shown)
VH: EVQLLESGGGLVQPGGSLRLSCAASGFTFSNYGMHWVRQAPGKGLEWVSEIWPNNGTTNYADSVKGRFTISRDNSKNTLYLQMNSLRAEDTAVYYCARESGQWWYGVFDYWGQGTLVTVSS
VL: EIVLTQSPGTLSLSPGERATLSCRASQSVSSSNLAWYQQKPGQAPRLLIYGASSRATGVPDRFSGSGSGTDFTLTISRLEPEDFAVYYCQQSSSYPWTFGQGTKVEIKRT
modifications: Clone SA58A12; DOMAIN (31)..(35) CDR1; DOMAIN (50)..(65) CDR2; DOMAIN (98)..(110) CDR3; DOMAIN (24)..(35) CDR1; DOMAIN (51)..(57) CDR2; DOMAIN (90)..(98) CDR3
[1]
  Specificity (cross-reactive pattern): specific towards MC-XZ where Z=R (Arg) and also towards Nod-R
[2]
  Specificity of anti-IC antibody (CCPH immunocomplexes recognized): specific for a subgroup XR

B3: SA56E7: variant-specific anti-IC antibody, MC-LR (antibody, V domains shown)
VH: EVQLLESGGGLVQPGGSLRLSCAASGFTFSRYYMHWVRQAPGKGLEWVSYIWPVDGETDYADSVKGRFTISRDNSKNTLYLQMNSLRAEDTAVYYCARYVYGNSVGRVFDYWGQGTLVTVSS
VL: EIVLTQSPGTLSLSPGERATLSCRASQSVSSSNLAWYQQKPGQAPRLLIYGASSRATGVPDRFSGSGSGTDFTLTISRLEPEDFAVYYCQQSYSYPWTFGQGTKVEIKRT
modifications: Clone SA56E7; DOMAIN (31)..(35) CDR1; DOMAIN (50)..(66) CDR2; DOMAIN (99)..(111) CDR3; DOMAIN (24)..(35) CDR1; DOMAIN (51)..(57) CDR2; DOMAIN (90)..(98) CDR3
[2]
  Specificity of anti-IC antibody (CCPH immunocomplexes recognized): recognize immunocomplexes comprising MC-LR

B4: SA51D12: variant-specific anti-IC antibody, MC-LR (antibody, V domains shown)
VH: EVQLLESGGGLVQPGGSLRLSCAASGFTFSSDVMHWVRQAPGKGLEWVSVISGYDGYTRYADSVKGRFTISRDNSKNTLYLQMNSLRAEDTAVYYCARGVPYLYGAYSFDYWGQGTLVTVSS
VL: EIVLTQSPGTLSLSPGERATLSCRASQSVSSSNLAWYQQKPGQAPRLLIYGASSRATGVPDRFSGSGSGTDFTLTISRLEPEDFAVYYCQQSSTPWTFGQGTKVEIKRT
modifications: Clone SA51D12; DOMAIN (31)..(35) CDR1; DOMAIN (50)..(66) CDR2; DOMAIN (99)..(111) CDR3; DOMAIN (24)..(35) CDR1; DOMAIN (51)..(57) CDR2; DOMAIN (90)..(98) CDR3
[2]
  Specificity of anti-IC antibody (CCPH immunocomplexes recognized): recognize immunocomplexes comprising MC-LR; also recorded: MC-LR and MC-LZ specific

B5: SA44E11: anti-IC antibody recognizing immunocomplexes comprising MC-RR (antibody, V domains shown)
VH: EVQLLESGGGLVQPGGSLRLSCAASGFTFSDYYMHWVRQAPGKGLEWVSEISTYNGYTDYADSVKGRFTISRDNSKNTLYLQMNSLRAEDTAVYYCARGGEPGDDWGQGTLVTVSS
VL: EIVLTQSPGTLSLSPGERATLSCRASQSVSSSALAWYQQKPGQAPRLLIYGASSRATGVPDRFSGSGSGTDFTLTISRLEPEDFAVYYCQQYSSLPWTFGQGTKVEIKRT
modifications: Clone SA44E11; DOMAIN (31)..(35) CDR1; DOMAIN (50)..(66) CDR2; DOMAIN (99)..(105) CDR3; DOMAIN (24)..(35) CDR1; DOMAIN (51)..(57) CDR2; DOMAIN (90)..(98) CDR3
[2]
  Specificity of anti-IC antibody (CCPH immunocomplexes recognized): recognize immunocomplexes comprising MC-RR

B6: SA32F1: variant-specific anti-IC antibody, Nod-R (antibody, V domains shown)
VH: EVQLLESGGGLVQPGGSLRLSCAASGFTFSNYYMHWVRQAPGKGFEWVSSIITNGGETDYADSVKGRFTISRDNSKNTLYLQMNSLRAEDTAVYYCARLPVTRPYYAVFDYWGQGTLVTVSS
VL: EIVLTQSPGTLSLSPGERATLSCRASQSVSSSALAWYQQKPGQAPRLLIYGASSRATGVPDRFSGSGSGTDFTLTISRLEPEDFAVYYCQQSSSYPWTFGQGTKVEIKRT
modifications: Clone SA32F1; DOMAIN (31)..(35) CDR1; DOMAIN (50)..(66) CDR2; DOMAIN (99)..(110) CDR3; DOMAIN (24)..(35) CDR1; DOMAIN (51)..(57) CDR2; DOMAIN (90)..(98) CDR3
[2]
  Specificity of anti-IC antibody (CCPH immunocomplexes recognized): recognize immunocomplexes comprising Nod-R

B7: SA34G1: variant-specific anti-IC antibody, Nod-R (antibody, V domains shown)
VH: EVQLLESGGGLVQPGGSLRLSCAASGFTFSDYWMHWVRQAPGKGLEWVSEIIPYSGYTNYADSVKGRFTISRDNSKNTLYLQMNSLRAEDTAVYYCARETWGYPSFDYWGQGTLVTVSS
VL: EIVLTQSPGTLSLSPGERATLSCRASQSVSSSNLAWYQQKPGQAPRLLIYGASSRATGVPDRFSGSGSGTDFTLTISRLEPEDFAVYYCQQSSSTPWTFGQGTKVEIKRT
modifications: Clone SA34G1; DOMAIN (31)..(35) CDR1; DOMAIN (50)..(66) CDR2; DOMAIN (99)..(108) CDR3; DOMAIN (24)..(35) CDR1; DOMAIN (51)..(57) CDR2; DOMAIN (90)..(98) CDR3
[2]
  Specificity of anti-IC antibody (CCPH immunocomplexes recognized): recognize immunocomplexes comprising Nod-R

B8: SA57D4: subgroup-specific anti-IC antibody (antibody, V domains shown)
VH: EVQLLESGGGLVQPGGSLRLSCAASGFTFSGYGMHWVRQAPGKGLEWVSAISDLNGSTYYADSVKGRFTISRDNSKNTLYLQMNSLRAEDTAVYYCARNGWGDMDLWGQGTLVTVSS
VL: EIVLTQSPGTLSLSPGERATLSCRASQSVSSSALAWYQQKPGQAPRLLIYGASSRATGVPDRFSGSGSGTDFTLTISRLEPEDFAVYYCQQSYSLPWTFGQGTKVEIKRT
modifications: Clone SA57D4; DOMAIN (31)..(35) CDR1; DOMAIN (50)..(66) CDR2; DOMAIN (99)..(106) CDR3; DOMAIN (24)..(35) CDR1; DOMAIN (51)..(57) CDR2; DOMAIN (90)..(98) CDR3
[2]
  Specificity of anti-IC antibody (CCPH immunocomplexes recognized): subgroup-specific
